B1: TPR t1 (parent)
chain: GACCAAUCUGCCCUCAGAGCUCGAGAACAUCUUCGGAUGCAGAGGAGGCAGGCUUCGGUGGCGCGAUAGCGCCAACGUCCUCAACCUCCAAUGCAUCCCACCACAUGAUGAUGCCUGAAGAGCCUUGGUUUUUUG

The variants in this series derive from B1. Put plainly: polymerase ribozyme fitness, log enrichment relative to wild type (log ratio); higher = more active; in vitro selection for triplet polymerase activity. The essentials: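 Libraries of mutants in each subunit of a heterodimeric triplet polymerase ribozyme were generated by PCR and transcribed. In triplicate, each went through one in vitro selection round: annealing with biotinylated primer, partner subunit and triplets; frozen incubation at −7 °C; gel excision of extended constructs; streptavidin-bead capture; RT-PCR. Fitness, taken from Illumina sequencing of input and output libraries, is the logarithm of a genotype's enrichment over wild-type enrichment, averaged across replicates with inverse-variance weights. The logarithm is base 2, and genotypes needed ≥10 input reads and ≥1 read per output to be kept.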
With G57A U130A, the “polymerase ribozyme fitness (log ratio)” value was -1.13.

As to C53G G61A, the “polymerase ribozyme fitness (log ratio)” value was -1.75. In the case of G19C A37U A46C C72A C76U C82G C124A, the “polymerase ribozyme fitness (log ratio)” value is -4.65. Then C22G A29U G120U U133A, with -5.17. As to G10C C62A U78C, the “polymerase ribozyme fitness (log ratio)” value is -1.58. G10A A37U G117U U133A: the “polymerase ribozyme fitness (log ratio)” value is -4.32. Take A26U G113A: the “polymerase ribozyme fitness (log ratio)” value is -3.51. With C28U C49U G60U A75G, the “polymerase ribozyme fitness (log ratio)” value was -3.76. Take C8U G63C: the “polymerase ribozyme fitness (log ratio)” value turned out to be 0.00815. To C72A U125C belongs -1.51. To G42C G71U A84U belongs -3.18; to U125A, -0.431; to A2U C8G G39C G61C C79U C101A, -4.35.

On to C11A A50U, for which the “polymerase ribozyme fitness (log ratio)” value is -2.48. Take U55G G69A: the “polymerase ribozyme fitness (log ratio)” value is -1.67.

C11U A37C G45U G58A U96A C101A: the “polymerase ribozyme fitness (log ratio)” value was -2.32. For G57A C124A, the “polymerase ribozyme fitness (log ratio)” value was found to be 0.954.

Take U112A U133G: the “polymerase ribozyme fitness (log ratio)” value came out at 1.43. On to G60U G61A, for which the “polymerase ribozyme fitness (log ratio)” value is -0.341. On to G42U G47A G69A, for which the “polymerase ribozyme fitness (log ratio)” value was -4.71. Take U14A G127U: the “polymerase ribozyme fitness (log ratio)” value was -3.57.

In the case of C4A U14G C49A C73G C86U, the “polymerase ribozyme fitness (log ratio)” value was -4.9.

As to G61C G71U, the “polymerase ribozyme fitness (log ratio)” value is -3.13. Then U32C G35U A108G A121G, with -7.39.

As for C34G A50G, the “polymerase ribozyme fitness (log ratio)” value is -6.59.

Regarding U9A C56A G61C G77U G117U, the “polymerase ribozyme fitness (log ratio)” value is -2.13. As to U7A A37U G71U A95G U96A, the “polymerase ribozyme fitness (log ratio)” value is -0.194. For A6G A43G G69U, the “polymerase ribozyme fitness (log ratio)” value is -0.0956. On to A6C U9A G52A A68G U106A, for which the “polymerase ribozyme fitness (log ratio)” value is -2.55. In the case of G45U G69A U78C U87G A111U, the “polymerase ribozyme fitness (log ratio)” value was -6.45. C4U G48C G69C C101G: the “polymerase ribozyme fitness (log ratio)” value was -4.61. Then C40U C94U G128U, with -4.33; and C56U C62U, with -0.378. With U7C C34A, the “polymerase ribozyme fitness (log ratio)” value was -2.72. To G45C C62A A83G A84U belongs -3.77; to A18G G69U U81C G107U, -3.65; to A46C C80A, -3.23.

Turning to C8U C86A, the “polymerase ribozyme fitness (log ratio)” value is -1.13. As to C3U C28A C72G U112A, the “polymerase ribozyme fitness (log ratio)” value is -3.66. On to A2G U9G C56U C88A, for which the “polymerase ribozyme fitness (log ratio)” value is -1.54. To C70U G127C belongs -2.15; to G47A G110C, -4.91; to U38A C94G, -2.2.

As for C4G C72A C85G C104U, the “polymerase ribozyme fitness (log ratio)” value was -2.16. Take U33C U133G: the “polymerase ribozyme fitness (log ratio)” value was -5.56. Regarding A5C C13A C34A A83U A108G C124A, the “polymerase ribozyme fitness (log ratio)” value was -5.47.

As to C13A A83G A121U C123U, the “polymerase ribozyme fitness (log ratio)” value came out at 0.492. Take C15G C22U: the “polymerase ribozyme fitness (log ratio)” value was -5.53. Regarding C94U U112A, the “polymerase ribozyme fitness (log ratio)” value was 1.59. Turning to C72G U78G C97U C124A, the “polymerase ribozyme fitness (log ratio)” value stood at 1.18. As to C4U G47A C56U C70A C101U A119G G120U G127A, the “polymerase ribozyme fitness (log ratio)” value was -3.88. Then C72G C99A C114G U129A U132A G135C, with -4.93. For the variant U14C G71C, the “polymerase ribozyme fitness (log ratio)” value was -2.35.

Take A66U G77A A95C: the “polymerase ribozyme fitness (log ratio)” value was -2.7. On to C3A G61U, for which the “polymerase ribozyme fitness (log ratio)” value was -1.07.

Take C86U A111U: the “polymerase ribozyme fitness (log ratio)” value was -2.11. C56A U116A: the “polymerase ribozyme fitness (log ratio)” value is -3.29. Then U55A G63A C73A, with -1.05; and G60U C62U, with -0.758. Then C53U G57U, with 0.599.

For the variant C76A C94A C101A, the “polymerase ribozyme fitness (log ratio)” value was -2.64.

For C11U C123G, the “polymerase ribozyme fitness (log ratio)” value turned out to be 1.73. To G61A A91C A95U G110U C115A U125C U130C belongs -3.6; to C11U U133G, -0.78. Then U87C, with 0.386. Then C73U A84G, with -0.874. C53G C62U: the “polymerase ribozyme fitness (log ratio)” value is -0.0991. For the variant C12U G39A C85U, the “polymerase ribozyme fitness (log ratio)” value is -1.02. To C56U C123U belongs 1.04; to C89G C101A, -2.55; to A2G C114U G120U, -3.07. To G61U A95G C124U belongs 1.97; to A6U U106C G107A C114U, -5.44. To G10U G44A G52U G122A C123U C124G U130G belongs -1.61. G17A C62A: the “polymerase ribozyme fitness (log ratio)” value was -4.08.

Take C31U G63C: the “polymerase ribozyme fitness (log ratio)” value is -5.08. C64U C89U C123U: the “polymerase ribozyme fitness (log ratio)” value amounted to 0.715.

In the case of G110A G113C, the “polymerase ribozyme fitness (log ratio)” value was -4.78.

On to A84C C88G, for which the “polymerase ribozyme fitness (log ratio)” value is -0.958. To G36C C53U G61A U112A G113U belongs -1.83; to C8G A50G, 0.932; to U59A G77A C79U U87C C114U, -3.41. Then C3A C73G A119U U129C, with -1.93; and A84G G113U G135A, with -4.51; and C13U G36A, with -0.918. To G42C G44U U112A belongs -1.44.

As for A50C G120A, the “polymerase ribozyme fitness (log ratio)” value is 0.456. Then G61U C114U, with -0.943; and C53U C89U G135C, with -0.361. To A5U C13G G44C belongs -2.74; to C13U A16G G63A U87A C98A C123G, -6.74.

A41G G52C A66C C97U: the “polymerase ribozyme fitness (log ratio)” value is -3.69. Then G93C C123A, with -1.09. Then A46U U59C U109A, with -5.97; and U9G A41U A95C U131A, with -1.93; and C12U C70U G71U U112A C123G, with 0.00675. Then C98U G120A, with -0.67. As for C12U U109G, the “polymerase ribozyme fitness (log ratio)” value is -3.6.

For G52C G69U, the “polymerase ribozyme fitness (log ratio)” value was -0.241. Then U55A G69C U87G G93U, with -1.37; and G60U G63A, with -4.69. To C72A G77A belongs -0.135; to C3U C86U C104A, -1.75. Then U9G G45U A74C G77A U112C, with 0.536. Take G61A C101A: the “polymerase ribozyme fitness (log ratio)” value is -0.787.

With G61A C101G, the “polymerase ribozyme fitness (log ratio)” value was -1.59. With G45U U92C, the “polymerase ribozyme fitness (log ratio)” value is -2.47.

As to C8A G77A, the “polymerase ribozyme fitness (log ratio)” value is 0.514. Then U9G G23A G60A G71C G113U G135C, with -5.28; and A95U U116G A118G, with -2.78; and C13G C99U, with -4.01. In the case of U33G A84C, the “polymerase ribozyme fitness (log ratio)” value was -6.66. Take G35C U59C C124A: the “polymerase ribozyme fitness (log ratio)” value was -3.15.

Regarding A5C C82U A84G U112A, the “polymerase ribozyme fitness (log ratio)” value is -1.06. G52U U96A: the “polymerase ribozyme fitness (log ratio)” value is -2.01. Then C102A A111G C115A A118U, with -4.83; and C53U G120U, with -0.193. Then A26U U38A, with -4.53; and C12A C79A, with -1.35. As to G19U C70U, the “polymerase ribozyme fitness (log ratio)” value is -3.23. A50C C72G: the “polymerase ribozyme fitness (log ratio)” value is -0.555.

Turning to G77U C104G, the “polymerase ribozyme fitness (log ratio)” value was -6.6.

For the variant G36U U59C U78C C101U C123A, the “polymerase ribozyme fitness (log ratio)” value is -1.25. Then C73A G127C, with -1.98; and G35A C102A, with -4.61. To C12A A37G U55G belongs -0.496.

As to A41C C64G, the “polymerase ribozyme fitness (log ratio)” value is -6.49. To G57C G61A G110U C115A belongs -2.7. Consider C79A C114A, for which the “polymerase ribozyme fitness (log ratio)” value is -2.46.

With G39C C89A C99U U106A A111G, the “polymerase ribozyme fitness (log ratio)” value is -6. For the variant G10U C20A A66G, the “polymerase ribozyme fitness (log ratio)” value was -4.29.

As to G36A G63U C85G, the “polymerase ribozyme fitness (log ratio)” value is -2.03. Then A29C G77U U81C, with -4.43. To A16U C22U C124A belongs -2.87; to U54G G61A C86G, -5.3. For the variant U129C U131G, the “polymerase ribozyme fitness (log ratio)” value turned out to be 0.298. To G63A U116G belongs -3.24. Then U59A C70U U112A, with 0.172; and U78C G120C, with 0.45. To A41G C79G belongs -4.32; to C49G A90U, -2.58.

Take C20U G60C C99U: the “polymerase ribozyme fitness (log ratio)” value was -4.59. To A46C G63U belongs -2.01; to G48C C56U C73G, -1.95; to G45U U55C G61U, -1.09. C31A U54A C89A A121U: the “polymerase ribozyme fitness (log ratio)” value is -7.04.

Regarding C70U U126C, the “polymerase ribozyme fitness (log ratio)” value is -0.89. To A16C G45C G63A A100C U112C U129G belongs -2.73; to G57A U81C G93C G120A, -1.39; to G39U U55G A74C A75C C104U G113C, -3.51. Then C12A C20U C114U, with -0.454; and G52U G63A G93A, with -1.45; and G10U U32C C56A C72A, with -1.43. Then G19U G42C, with -3.93; and C11G C70A G127C, with -2.16.

For U116G G120C U129A, the “polymerase ribozyme fitness (log ratio)” value was -2.49. To C3U C13U G63A belongs -1.19; to G42C A91G G113U, -3.17. To C102A U106A C115A U129A belongs -4.5. Regarding A2G G36A C49G G69U A90G C97U G120C, the “polymerase ribozyme fitness (log ratio)” value came out at 0.751. On to G25C C28A G48U G71U C73G G113U, for which the “polymerase ribozyme fitness (log ratio)” value was -6.43. For C20U U21G C49A C98U, the “polymerase ribozyme fitness (log ratio)” value was -4.2. A37U U54C G60U: the “polymerase ribozyme fitness (log ratio)” value came out at 1.01.

In the case of C56A C94A, the “polymerase ribozyme fitness (log ratio)” value was -1.2. Regarding C70U U130G, the “polymerase ribozyme fitness (log ratio)” value is -1.24. C53A G63U C114U: the “polymerase ribozyme fitness (log ratio)” value is -5.9. To U32C C73U A118G belongs -0.657.
